Patent US8889621B2, “Inhibiting binding of FGF23 to the binary FGFR-Klotho complex for the treatment of hypophosphatemia” (New York University, priority 2009, dated 2014)
“Also recorded” adds a separate entry of the source. Blank lines part the entries; values can stand above or below the molecule they belong to.

How the values were obtained:
Klotho ectodomain = biological target: T1, Klotho ectodomain (Mus musculus, UniProt O35082); test: SPR: Klotho ectodomain passed over immobilized FGF23; format: binding, murine
T1 construct: The ectodomain of murine Klotho (A35 to K982) was purified from culture media; FLAG (C); made in house; host or cells: HEK293 (secreted into culture media)
T1 sequence (O35082 35-982): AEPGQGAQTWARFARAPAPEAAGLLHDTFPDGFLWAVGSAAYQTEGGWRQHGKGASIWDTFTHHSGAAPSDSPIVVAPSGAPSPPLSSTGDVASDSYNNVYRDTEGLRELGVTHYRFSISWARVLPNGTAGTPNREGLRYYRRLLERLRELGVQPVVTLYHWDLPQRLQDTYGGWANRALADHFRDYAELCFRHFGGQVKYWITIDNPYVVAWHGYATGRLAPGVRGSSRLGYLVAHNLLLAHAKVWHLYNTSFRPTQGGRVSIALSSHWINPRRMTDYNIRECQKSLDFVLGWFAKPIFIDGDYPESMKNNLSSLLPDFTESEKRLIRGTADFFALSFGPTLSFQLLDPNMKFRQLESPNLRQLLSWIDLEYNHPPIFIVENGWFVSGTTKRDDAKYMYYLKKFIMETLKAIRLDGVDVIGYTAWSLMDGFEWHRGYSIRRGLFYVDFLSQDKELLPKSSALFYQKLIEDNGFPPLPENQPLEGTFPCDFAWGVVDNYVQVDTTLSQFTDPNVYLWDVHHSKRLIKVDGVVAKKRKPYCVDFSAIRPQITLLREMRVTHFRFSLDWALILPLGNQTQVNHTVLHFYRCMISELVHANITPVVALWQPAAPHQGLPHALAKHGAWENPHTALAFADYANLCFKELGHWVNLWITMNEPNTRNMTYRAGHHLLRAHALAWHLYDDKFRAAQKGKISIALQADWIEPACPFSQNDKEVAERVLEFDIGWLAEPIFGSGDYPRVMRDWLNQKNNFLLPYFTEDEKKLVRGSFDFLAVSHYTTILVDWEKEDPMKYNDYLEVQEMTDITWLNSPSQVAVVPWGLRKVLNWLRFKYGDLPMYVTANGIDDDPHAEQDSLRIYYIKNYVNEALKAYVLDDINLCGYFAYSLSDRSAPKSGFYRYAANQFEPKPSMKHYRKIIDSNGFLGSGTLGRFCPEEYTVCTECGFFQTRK
Procedure: Surface plasmon resonance (SPR) spectroscopy experiments were performed on a Biacore 2000 instrument (Biacore AB), and FGF23-FGFR1c-Klotho interactions were studied at 25° C. in HBS-EP buffer (10 mM HEPES-NaOH, pH 7.4, 150 mM NaCl, 3 mM EDTA, 0.005% (v/v) polysorbate 20). Proteins were immobilized by amine coupling on flow channels of research grade CM5 chips (Biacore AB). Proteins were injected over a CM5 chip at a flow rate of 50 μl min^−1, and at the end of each protein injection (180 s), HBS-EP buffer (50 μl min^−1) was flowed over the chip to monitor dissociation for 180 s. The chip surface was then regenerated by injecting 50 μl of 2.0 M NaCl in 10 mM sodium acetate, pH 4.5. To control for nonspecific binding in experiments where Klotho ectodomain was immobilized on the chip, β-glucuronidase was coupled to the control flow channel of the chip (˜26-32 fmole/mm^2). […] The data were processed with BiaEvaluation software (Biacore AB). For each protein injection over a Klotho chip, the nonspecific responses from the β-glucuronidase control flow channel were subtracted from the responses recorded for the Klotho flow channel. Similarly, for each protein injection over a FGF chip, the nonspecific responses from the FHF1B control flow channel were subtracted from the responses recorded for the FGF flow channel. […]

βKlotho-FGF21 = biological target: T2, βKlotho-FGF21 (Mus musculus, UniProt Q99N32); test: SPR specificity: βKlotho binding to immobilized FGF21^29-209; set-up: species or system murine βKlotho, human FGF21; conditions: molar ratio of 2:1 to βKlotho
T2 construct: the ectodomain of murine βKlotho (F53 to L995) was expressed in HEK293 cells; FLAG (C); made in house; host or cells: HEK293 (βKlotho ectodomain); E. coli (FGF21)
T2 sequence (Q99N32 53-995): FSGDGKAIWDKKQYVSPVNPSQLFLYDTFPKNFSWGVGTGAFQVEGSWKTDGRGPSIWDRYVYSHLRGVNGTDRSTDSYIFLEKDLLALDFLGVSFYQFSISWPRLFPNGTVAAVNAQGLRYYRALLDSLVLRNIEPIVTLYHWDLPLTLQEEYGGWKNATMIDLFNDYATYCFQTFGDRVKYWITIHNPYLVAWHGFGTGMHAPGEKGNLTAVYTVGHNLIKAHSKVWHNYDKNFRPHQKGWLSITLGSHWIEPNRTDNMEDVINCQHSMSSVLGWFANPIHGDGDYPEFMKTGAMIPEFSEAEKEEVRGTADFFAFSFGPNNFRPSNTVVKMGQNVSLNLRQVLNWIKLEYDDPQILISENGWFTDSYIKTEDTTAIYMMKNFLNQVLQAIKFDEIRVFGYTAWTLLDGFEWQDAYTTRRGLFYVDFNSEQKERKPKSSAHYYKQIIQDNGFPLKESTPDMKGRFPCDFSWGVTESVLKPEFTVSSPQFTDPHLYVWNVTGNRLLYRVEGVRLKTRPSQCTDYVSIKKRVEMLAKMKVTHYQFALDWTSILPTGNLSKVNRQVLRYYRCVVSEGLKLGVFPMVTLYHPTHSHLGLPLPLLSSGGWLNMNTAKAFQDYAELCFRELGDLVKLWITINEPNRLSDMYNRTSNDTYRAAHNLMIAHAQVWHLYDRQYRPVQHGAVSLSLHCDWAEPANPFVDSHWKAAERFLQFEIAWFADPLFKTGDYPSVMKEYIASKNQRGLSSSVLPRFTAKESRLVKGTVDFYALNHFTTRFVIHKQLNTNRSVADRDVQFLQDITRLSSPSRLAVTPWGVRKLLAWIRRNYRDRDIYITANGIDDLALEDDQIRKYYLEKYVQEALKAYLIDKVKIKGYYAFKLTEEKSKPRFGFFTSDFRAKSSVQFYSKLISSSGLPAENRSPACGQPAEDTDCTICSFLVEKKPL

- binding of Klotho ectodomain to immobilized FGF23 (Klotho ectodomain): bound poorly
B1: FGF23^28-251: human FGF23 (A28 to I251), bioactive full-length ligand expressed in E. coli (protein, listed as Homo sapiens)
chain: ASPLLGSSWGGLIHLYTATARNSYHLQIHKNGHVDGAPHQTIYSALMIRSEDAGFVVITGVMSRRYLCMDFRGNIFGSHYFDPENCRFQHQTLENGYDVYHSPQYHFLVSLGRAKRAFLPGMNPPPYSQFLSRRNEIPLIHFNTPIPRRHTRSAEDDSERDPLNVLKPRARMTPAPASCSQELPSAEDNSPMASDPLGVVRGGRVNTHAGGTGPEGCRPFAKFI

B2: FGF23^180-251: 72-amino acid C-terminal tail of human FGF23 (S180 to I251), expressed in E. coli (protein, listed as Homo sapiens)
chain: SAEDDSERDPLNVLKPRARMTPAPASCSQELPSAEDNSPMASDPLGVVRGGRVNTHAGGTGPEGCRPFAKFI
- inhibition of βKlotho binding to immobilized FGF21 (βKlotho-FGF21): failed to inhibit; also recorded: no inhibition
